Key:
echa_human HADHA = echa_human HADHA (UniProt P40939)
tbc15_human TBC1D15 = target: T1, tbc15_human TBC1D15 (UniProt Q8TC07)
T1 sequence: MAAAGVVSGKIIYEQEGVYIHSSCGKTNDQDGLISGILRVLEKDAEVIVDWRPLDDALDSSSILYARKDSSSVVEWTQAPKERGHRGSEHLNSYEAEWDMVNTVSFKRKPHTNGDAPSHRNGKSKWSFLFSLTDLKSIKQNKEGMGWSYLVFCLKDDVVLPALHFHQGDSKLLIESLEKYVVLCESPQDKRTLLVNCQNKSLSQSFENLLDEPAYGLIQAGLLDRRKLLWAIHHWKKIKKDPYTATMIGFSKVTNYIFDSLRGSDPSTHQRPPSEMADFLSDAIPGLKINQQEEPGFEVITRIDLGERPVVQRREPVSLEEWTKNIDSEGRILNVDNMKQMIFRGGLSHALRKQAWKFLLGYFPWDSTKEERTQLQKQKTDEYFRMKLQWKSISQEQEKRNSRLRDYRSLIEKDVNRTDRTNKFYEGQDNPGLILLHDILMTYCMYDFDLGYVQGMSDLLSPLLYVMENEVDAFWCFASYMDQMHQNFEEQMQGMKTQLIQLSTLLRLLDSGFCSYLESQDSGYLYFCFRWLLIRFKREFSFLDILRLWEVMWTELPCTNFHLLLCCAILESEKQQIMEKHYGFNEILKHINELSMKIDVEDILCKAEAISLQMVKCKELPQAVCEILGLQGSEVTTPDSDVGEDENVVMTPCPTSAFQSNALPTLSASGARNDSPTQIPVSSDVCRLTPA

kbtb6_human KBTBD6 = target: T2, kbtb6_human KBTBD6 (UniProt Q86V97)
T2 sequence: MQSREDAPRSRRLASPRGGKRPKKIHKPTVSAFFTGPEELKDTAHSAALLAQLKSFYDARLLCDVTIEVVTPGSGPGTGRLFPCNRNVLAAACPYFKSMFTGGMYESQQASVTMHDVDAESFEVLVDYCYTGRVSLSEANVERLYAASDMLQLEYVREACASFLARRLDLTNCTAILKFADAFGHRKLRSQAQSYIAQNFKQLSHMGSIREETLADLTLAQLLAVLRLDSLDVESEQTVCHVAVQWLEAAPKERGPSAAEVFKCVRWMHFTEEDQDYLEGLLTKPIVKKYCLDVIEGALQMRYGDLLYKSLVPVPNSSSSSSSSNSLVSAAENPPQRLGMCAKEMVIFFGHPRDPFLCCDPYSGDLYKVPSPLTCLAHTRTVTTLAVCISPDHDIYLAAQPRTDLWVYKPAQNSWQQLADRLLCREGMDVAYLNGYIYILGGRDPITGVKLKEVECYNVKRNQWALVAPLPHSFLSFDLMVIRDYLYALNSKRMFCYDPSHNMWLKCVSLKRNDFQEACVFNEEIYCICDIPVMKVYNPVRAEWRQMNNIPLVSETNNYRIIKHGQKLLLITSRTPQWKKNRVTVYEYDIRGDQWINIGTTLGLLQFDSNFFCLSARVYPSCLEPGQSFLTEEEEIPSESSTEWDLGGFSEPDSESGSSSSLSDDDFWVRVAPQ

rn123_human RNF123 = target: T3, rn123_human RNF123 (UniProt Q5XPI4)
T3 sequence: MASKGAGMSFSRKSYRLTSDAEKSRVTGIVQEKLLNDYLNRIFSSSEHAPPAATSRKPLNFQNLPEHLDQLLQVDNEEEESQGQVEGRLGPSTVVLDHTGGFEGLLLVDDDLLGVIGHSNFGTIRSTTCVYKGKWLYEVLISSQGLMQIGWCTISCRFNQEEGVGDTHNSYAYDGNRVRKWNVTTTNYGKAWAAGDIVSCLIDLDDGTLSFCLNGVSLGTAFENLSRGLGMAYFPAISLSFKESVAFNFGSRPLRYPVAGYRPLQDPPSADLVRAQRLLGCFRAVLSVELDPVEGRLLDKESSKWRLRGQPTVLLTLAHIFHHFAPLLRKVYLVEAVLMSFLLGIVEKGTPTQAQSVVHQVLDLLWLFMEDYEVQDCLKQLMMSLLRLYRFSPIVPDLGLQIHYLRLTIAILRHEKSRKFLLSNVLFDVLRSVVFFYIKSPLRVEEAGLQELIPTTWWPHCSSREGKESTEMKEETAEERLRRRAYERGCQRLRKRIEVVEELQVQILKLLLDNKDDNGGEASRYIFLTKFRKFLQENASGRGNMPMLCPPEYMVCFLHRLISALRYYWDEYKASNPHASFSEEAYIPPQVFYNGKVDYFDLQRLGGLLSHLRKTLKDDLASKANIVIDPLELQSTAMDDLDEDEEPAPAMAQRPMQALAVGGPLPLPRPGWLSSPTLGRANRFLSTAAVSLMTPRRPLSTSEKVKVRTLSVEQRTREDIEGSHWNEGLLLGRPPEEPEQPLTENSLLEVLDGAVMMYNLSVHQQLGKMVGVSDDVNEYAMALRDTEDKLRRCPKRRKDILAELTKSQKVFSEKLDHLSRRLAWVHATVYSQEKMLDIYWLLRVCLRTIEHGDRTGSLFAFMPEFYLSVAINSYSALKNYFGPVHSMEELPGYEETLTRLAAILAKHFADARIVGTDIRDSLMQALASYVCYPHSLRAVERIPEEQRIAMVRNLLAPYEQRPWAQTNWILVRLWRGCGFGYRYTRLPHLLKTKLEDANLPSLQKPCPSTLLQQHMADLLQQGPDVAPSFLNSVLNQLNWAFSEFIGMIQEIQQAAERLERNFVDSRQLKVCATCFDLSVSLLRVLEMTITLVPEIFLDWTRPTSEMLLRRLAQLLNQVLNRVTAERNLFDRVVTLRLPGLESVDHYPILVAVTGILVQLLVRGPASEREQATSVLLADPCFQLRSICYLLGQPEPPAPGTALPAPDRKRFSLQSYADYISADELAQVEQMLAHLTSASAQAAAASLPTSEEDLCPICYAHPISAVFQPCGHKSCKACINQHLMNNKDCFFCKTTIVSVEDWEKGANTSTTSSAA

Sequence of echa_human HADHA (P40939 whole entry): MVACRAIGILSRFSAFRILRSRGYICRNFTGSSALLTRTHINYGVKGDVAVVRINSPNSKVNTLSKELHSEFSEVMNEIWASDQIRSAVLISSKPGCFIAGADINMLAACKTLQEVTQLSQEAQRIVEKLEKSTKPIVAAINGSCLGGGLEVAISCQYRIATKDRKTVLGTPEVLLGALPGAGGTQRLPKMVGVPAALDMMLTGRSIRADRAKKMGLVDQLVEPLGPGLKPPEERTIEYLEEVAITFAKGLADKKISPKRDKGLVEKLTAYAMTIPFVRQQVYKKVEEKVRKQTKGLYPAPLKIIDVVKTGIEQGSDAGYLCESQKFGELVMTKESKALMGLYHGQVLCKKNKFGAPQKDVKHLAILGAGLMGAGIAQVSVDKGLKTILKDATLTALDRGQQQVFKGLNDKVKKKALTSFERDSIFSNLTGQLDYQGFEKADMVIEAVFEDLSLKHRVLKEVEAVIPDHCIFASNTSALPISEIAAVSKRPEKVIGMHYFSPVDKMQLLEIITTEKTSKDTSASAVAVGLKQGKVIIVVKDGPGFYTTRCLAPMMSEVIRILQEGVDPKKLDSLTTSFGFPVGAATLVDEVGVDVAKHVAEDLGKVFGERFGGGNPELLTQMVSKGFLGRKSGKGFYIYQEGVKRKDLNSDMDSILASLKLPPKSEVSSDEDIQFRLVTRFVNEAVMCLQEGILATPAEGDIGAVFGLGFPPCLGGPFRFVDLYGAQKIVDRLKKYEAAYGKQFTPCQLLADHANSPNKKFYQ

| Substance | effect of a mutation on the interaction (echa_human HADHA) | effect of a mutation on the interaction (tbc15_human TBC1D15) | effect of a mutation on the interaction (kbtb6_human KBTBD6) | effect of a mutation on the interaction (rn123_human RNF123) |
| --- | --- | --- | --- | --- |
| Microtubule-associated protein 1 light chain 3 beta (Homo sapiens) (from UniProt Q9GZQ8) R69A | disrupting interaction | decreasing interaction | disrupting interaction | decreasing interaction |
| Microtubule-associated protein 1 light chain 3 beta (Homo sapiens) (from UniProt Q9GZQ8) F52A;L53A | increasing interaction | decreasing interaction | decreasing interaction | increasing interaction |
